Results from IntAct's records for PubMed 29892012.

B1: TBC1 domain family member 22B (Homo sapiens), Q9NU19 (parent)
chain: MAAENSKQFWKRSAKLPGSIQPVYGAQHPPLDPRLTKNFIKERSKVNTVPLKNKKASSFHEFARNTSDAWDIGDDEEEDFSSPSFQTLNSKVALATAAQVLENHSKLRVKPERSQSTTSDVPANYKVIKSSSDAQLSRNSSDTCLRNPLHKQQSLPLRPIIPLVARISDQNASGAPPMTVREKTRLEKFRQLLSSQNTDLDELRKCSWPGVPREVRPITWRLLSGYLPANTERRKLTLQRKREEYFGFIEQYYDSRNEEHHQDTYRQIHIDIPRTNPLIPLFQQPLVQEIFERILFIWAIRHPASGYVQGINDLVTPFFVVFLSEYVEEDVENFDVTNLSQDMLRSIEADSFWCMSKLLDGIQDNYTFAQPGIQKKVKALEELVSRIDEQVHNHFRRYEVEYLQFAFRWMNNLLMRELPLRCTIRLWDTYQSEPEGFSHFHLYVCAAFLIKWRKEILDEEDFQGLLMLLQNLPTIHWGNEEIGLLLAEAYRLKYMFADAPNHYRR
partner: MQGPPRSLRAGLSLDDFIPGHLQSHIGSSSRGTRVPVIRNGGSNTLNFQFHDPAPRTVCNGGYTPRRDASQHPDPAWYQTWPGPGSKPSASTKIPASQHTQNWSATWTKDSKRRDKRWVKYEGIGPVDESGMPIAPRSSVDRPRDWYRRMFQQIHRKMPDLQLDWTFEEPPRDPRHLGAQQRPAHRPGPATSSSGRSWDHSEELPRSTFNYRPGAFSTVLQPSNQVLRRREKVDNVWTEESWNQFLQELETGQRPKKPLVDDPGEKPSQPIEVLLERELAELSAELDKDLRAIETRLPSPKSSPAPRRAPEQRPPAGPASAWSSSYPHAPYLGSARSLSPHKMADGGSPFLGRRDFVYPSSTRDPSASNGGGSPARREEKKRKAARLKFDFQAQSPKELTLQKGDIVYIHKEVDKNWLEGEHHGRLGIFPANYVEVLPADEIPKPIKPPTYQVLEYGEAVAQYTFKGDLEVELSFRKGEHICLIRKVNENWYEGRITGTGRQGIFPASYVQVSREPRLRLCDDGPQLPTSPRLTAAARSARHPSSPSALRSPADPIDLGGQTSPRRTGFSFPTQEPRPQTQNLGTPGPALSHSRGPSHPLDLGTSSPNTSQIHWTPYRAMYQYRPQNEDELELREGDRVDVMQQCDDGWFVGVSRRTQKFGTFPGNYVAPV
B2: TBC1 domain family member 22B (Homo sapiens), Q9NU19 (parent)
chain: B1 chain
partner: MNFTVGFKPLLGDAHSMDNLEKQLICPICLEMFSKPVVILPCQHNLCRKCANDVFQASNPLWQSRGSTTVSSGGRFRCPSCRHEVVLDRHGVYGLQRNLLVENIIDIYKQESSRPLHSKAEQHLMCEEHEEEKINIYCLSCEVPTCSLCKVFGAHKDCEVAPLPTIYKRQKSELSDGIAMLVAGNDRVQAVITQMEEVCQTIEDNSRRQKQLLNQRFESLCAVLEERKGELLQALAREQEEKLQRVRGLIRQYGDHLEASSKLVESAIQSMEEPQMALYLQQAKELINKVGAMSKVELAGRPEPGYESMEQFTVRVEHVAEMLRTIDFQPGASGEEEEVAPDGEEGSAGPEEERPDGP
B3: TBC1 domain family member 22B (Homo sapiens), Q9NU19 (parent)
chain: B1 chain
partner: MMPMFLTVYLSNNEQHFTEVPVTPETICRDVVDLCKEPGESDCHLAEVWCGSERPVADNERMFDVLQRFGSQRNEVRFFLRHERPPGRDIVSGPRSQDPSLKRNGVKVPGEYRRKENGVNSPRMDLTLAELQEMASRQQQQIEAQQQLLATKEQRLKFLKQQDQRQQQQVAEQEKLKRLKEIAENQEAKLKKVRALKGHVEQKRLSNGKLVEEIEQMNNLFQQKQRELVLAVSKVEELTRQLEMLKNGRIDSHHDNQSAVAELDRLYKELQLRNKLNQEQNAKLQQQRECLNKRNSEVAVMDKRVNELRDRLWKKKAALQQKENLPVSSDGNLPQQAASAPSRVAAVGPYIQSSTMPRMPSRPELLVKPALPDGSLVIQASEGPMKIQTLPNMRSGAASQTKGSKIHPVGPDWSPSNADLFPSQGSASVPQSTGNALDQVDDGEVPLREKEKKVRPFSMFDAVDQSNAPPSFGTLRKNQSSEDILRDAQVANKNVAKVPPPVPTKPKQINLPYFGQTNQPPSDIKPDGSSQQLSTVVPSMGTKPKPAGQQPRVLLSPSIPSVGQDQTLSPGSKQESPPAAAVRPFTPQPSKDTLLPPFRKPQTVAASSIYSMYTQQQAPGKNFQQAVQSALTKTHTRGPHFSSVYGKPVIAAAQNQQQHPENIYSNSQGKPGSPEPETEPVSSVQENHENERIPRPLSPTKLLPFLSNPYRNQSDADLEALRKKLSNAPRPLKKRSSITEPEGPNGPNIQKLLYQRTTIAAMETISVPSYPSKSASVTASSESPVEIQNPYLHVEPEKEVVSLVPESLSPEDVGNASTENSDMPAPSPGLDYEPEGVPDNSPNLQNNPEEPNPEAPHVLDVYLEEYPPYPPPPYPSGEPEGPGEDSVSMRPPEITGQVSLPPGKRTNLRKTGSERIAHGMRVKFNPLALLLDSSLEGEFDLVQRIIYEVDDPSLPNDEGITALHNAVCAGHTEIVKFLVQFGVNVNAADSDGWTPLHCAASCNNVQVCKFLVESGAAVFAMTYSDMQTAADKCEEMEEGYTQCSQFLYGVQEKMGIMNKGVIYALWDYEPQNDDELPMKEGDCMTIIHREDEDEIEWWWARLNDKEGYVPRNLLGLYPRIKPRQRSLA
B4: TBC1 domain family member 22B (Homo sapiens), Q9NU19 (parent)
chain: B1 chain
partner: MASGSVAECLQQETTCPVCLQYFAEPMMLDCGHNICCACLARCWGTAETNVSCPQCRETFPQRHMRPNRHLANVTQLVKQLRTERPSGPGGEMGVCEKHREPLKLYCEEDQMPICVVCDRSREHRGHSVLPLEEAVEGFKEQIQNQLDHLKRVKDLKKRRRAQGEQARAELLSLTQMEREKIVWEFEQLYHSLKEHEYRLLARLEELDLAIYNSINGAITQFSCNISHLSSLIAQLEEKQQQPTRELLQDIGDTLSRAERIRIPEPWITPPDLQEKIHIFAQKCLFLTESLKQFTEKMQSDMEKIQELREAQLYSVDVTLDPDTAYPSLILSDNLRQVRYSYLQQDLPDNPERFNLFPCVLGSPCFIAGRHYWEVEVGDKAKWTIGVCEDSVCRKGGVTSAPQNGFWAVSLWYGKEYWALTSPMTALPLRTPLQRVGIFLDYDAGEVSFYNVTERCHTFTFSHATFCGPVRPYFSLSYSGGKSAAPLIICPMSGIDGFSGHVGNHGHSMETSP
B5: TBC1 domain family member 22B (Homo sapiens), Q9NU19 (parent)
chain: B1 chain
partner: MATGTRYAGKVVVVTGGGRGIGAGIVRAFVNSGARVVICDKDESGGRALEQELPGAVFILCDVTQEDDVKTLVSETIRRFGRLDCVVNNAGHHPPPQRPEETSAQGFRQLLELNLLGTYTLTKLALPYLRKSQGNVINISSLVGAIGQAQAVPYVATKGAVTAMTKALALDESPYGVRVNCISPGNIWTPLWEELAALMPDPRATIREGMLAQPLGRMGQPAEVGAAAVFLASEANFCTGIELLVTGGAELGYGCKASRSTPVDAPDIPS
B6: TBC1 domain family member 22B (Homo sapiens), Q9NU19 (parent)
chain: B1 chain
partner: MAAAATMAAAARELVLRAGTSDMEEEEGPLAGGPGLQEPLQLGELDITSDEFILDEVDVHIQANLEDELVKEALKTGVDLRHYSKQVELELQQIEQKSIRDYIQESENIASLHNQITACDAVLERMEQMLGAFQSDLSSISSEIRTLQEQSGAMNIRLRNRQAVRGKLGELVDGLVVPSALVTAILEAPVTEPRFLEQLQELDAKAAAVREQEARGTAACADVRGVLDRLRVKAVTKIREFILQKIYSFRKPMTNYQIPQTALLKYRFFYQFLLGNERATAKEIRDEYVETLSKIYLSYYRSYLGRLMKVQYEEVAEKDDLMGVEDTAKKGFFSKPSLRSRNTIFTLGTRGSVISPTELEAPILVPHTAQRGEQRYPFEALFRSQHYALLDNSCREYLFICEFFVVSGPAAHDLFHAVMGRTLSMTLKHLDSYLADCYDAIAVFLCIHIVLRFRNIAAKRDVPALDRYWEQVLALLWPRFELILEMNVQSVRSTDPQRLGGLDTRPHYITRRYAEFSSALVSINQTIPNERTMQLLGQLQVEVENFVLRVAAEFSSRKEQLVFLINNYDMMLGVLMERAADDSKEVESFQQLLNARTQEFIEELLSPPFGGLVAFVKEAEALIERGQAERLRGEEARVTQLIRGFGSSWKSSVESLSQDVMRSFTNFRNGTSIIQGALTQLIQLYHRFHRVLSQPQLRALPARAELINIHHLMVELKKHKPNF
B7: TBC1 domain family member 22B (Homo sapiens), Q9NU19 (parent)
chain: B1 chain
partner: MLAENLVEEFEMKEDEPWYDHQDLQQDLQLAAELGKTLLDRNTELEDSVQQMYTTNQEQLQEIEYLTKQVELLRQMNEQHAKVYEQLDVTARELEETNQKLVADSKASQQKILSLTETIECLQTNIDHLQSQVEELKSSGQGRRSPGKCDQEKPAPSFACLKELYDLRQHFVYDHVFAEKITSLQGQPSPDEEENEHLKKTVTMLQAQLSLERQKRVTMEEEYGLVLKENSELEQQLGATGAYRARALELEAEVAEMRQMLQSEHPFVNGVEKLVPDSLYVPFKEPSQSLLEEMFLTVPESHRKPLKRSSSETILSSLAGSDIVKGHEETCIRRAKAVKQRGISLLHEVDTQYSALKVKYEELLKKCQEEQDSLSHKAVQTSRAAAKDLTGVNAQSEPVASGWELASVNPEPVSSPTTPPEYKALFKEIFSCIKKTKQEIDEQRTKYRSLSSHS
B8: TBC1 domain family member 22B (Homo sapiens), Q9NU19 (parent)
chain: B1 chain
partner: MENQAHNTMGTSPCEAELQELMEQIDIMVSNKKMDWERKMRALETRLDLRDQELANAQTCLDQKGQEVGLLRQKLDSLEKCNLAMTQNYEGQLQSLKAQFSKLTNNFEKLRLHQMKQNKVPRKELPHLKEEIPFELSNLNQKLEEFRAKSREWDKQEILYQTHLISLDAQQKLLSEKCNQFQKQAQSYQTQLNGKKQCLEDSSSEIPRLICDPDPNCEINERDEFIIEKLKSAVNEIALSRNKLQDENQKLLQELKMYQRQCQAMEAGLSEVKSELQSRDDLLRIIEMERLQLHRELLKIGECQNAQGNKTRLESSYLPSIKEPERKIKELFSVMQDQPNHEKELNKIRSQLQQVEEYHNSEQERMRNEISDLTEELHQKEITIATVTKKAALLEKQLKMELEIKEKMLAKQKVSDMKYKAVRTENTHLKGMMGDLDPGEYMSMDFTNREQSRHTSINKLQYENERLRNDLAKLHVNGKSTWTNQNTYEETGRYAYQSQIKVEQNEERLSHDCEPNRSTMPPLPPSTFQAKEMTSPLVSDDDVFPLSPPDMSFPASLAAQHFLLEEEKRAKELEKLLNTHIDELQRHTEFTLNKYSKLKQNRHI
B9: TBC1 domain family member 22B (Homo sapiens), Q9NU19 (parent)
chain: B1 chain
partner: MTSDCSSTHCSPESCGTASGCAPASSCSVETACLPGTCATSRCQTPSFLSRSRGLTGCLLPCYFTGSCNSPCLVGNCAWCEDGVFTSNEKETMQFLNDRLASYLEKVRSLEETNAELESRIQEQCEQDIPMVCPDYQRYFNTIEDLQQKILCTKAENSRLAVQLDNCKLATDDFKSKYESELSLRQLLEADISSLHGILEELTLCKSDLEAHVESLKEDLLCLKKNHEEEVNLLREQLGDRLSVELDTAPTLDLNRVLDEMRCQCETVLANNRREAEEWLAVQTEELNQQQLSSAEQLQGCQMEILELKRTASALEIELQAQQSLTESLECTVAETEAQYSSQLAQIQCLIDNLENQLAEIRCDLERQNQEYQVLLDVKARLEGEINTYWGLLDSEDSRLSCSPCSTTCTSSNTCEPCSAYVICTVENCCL

Variants of: B1
Details: with vinex_human SORBS3, O60504

| Variant | effect of a mutation on the interaction |
| --- | --- |
| A349T | disrupting interaction strength |

Variants of: B2
Details: with tri54_human TRIM54, Q9BYV2

| Variant | effect of a mutation on the interaction |
| --- | --- |
| A349T | disrupting interaction strength |

Variants of: B3
Details: with aspp2_human TP53BP2, Q13625

| Variant | effect of a mutation on the interaction |
| --- | --- |
| A349T | disrupting interaction strength |

Variants of: B4
Details: with tri27_human TRIM27, P14373

| Variant | effect of a mutation on the interaction |
| --- | --- |
| A349T | disrupting interaction strength |

Variants of: B5
Details: with dhb14_human HSD17B14, Q9BPX1

| Variant | effect of a mutation on the interaction |
| --- | --- |
| A349T | disrupting interaction strength |

Variants of: B6
Details: with vps52_human VPS52, Q8N1B4

| Variant | effect of a mutation on the interaction |
| --- | --- |
| A349T | disrupting interaction strength |

Variants of: B7
Details: with cdr2_human CDR2, Q01850

| Variant | effect of a mutation on the interaction |
| --- | --- |
| A349T | disrupting interaction strength |

Variants of: B8
Details: with deup1_human DEUP1, Q05D60

| Variant | effect of a mutation on the interaction |
| --- | --- |
| A349T | disrupting interaction strength |

Variants of: B9
Details: with KRT40, Q6A162

| Variant | effect of a mutation on the interaction |
| --- | --- |
| A349T | disrupting interaction strength |
